From patent US20170044545, “APTAMER FOR BONDING TO AUTOTAXIN AND INHIBITING BIOLOGICAL ACTIVITY OF AUTOTAXIN, AND USE FOR SAME” (RIBOMIC INC., published 2017)

Experiments:
Autotaxin (ENPP2, NPP2) [1] = biological target: T1, Autotaxin (ENPP2, NPP2) (Homo sapiens, UniProt Q13822 Q13822:36-863); experiment: SPR
Autotaxin (ENPP2, NPP2) [2] = biological target: T1, Autotaxin (ENPP2, NPP2); experiment: inhibition; listing sequence lacks U7 printed in text
Autotaxin (ENPP2, NPP2) [3] = biological target: T1, Autotaxin (ENPP2, NPP2); experiment: inhibition
Autotaxin (ENPP2, NPP2) [4] = biological target: T1, Autotaxin (ENPP2, NPP2); experiment: inhibition; NPP2 assay, pNP-TMP substrate, solution A (Ca, Mg), 37 C
Autotaxin (ENPP2, NPP2) [5] = biological target: T1, Autotaxin (ENPP2, NPP2); experiment: SPR; not more than 10% of SEQ 4
Autotaxin (ENPP2, NPP2) [6] = biological target: T1, Autotaxin (ENPP2, NPP2); experiment: inhibition; text prints 3' CCUGGA, listing ccucgga

UCUGAGGGAUACAGGUAUUGCUCCUCGGA (ssRNA, 2'-F pyrimidines, 2'-OH purines) [SEQ 27]
binding result (Autotaxin (ENPP2, NPP2) [1]): no binding

UCUGAGUGAAACAGGUUUUGCUGCUCGGA (ssRNA, 2'-F pyrimidines, 2'-OH purines [2'-F at all C and U; A and G 2'-OH]) [SEQ 48]
IC50 (Autotaxin (ENPP2, NPP2) [2]): 44 nM

UCUGAGGGAAACAGGUUUUGCUCCUCGGA (mixed, as 16(21) with dC26) [SEQ 16(26)]
IC50 (Autotaxin (ENPP2, NPP2) [3]): 2.1 nM

B1: SEQ 16(53) (mixed)
RNA: UCUGAGGGAAACAGGUUUUGCUCCUCGGA
modifications: dT1; 2'-deoxy G8,G14,G15; 2'-OMe G4,A5,G6,G7,A9,A11,A13,G20,G27,G28,A29; 2'-OH A10 with PS; other pyrimidines 2'-F; 5' 80 kDa PEG (GL2-800GS2)-ssH linker; 3' idT
IC50 (Autotaxin (ENPP2, NPP2) [4]): 2.7 nM

B2: SEQ 16(57) (mixed)
RNA: UCUGAGGGAAACAGGUUUUGCUCCUCGGA
modifications: dT1; 2'-deoxy G8,G14,G15,C23,C26; 2'-OMe G4,A5,G6,G7,A9,A11,A13,G20,U22,G27,G28,A29; 2'-OH A10 with PS; other pyrimidines 2'-F; 5' and 3' idT
IC50 (Autotaxin (ENPP2, NPP2) [4]): 0.3 nM

B3: SEQ 16(50) (mixed)
RNA: UCUGAGGGAAACAGGUUUUGCUCCUCGGA
modifications: 2'-deoxy G8,G14,G15,C23,C26; 2'-OMe G4,A5,G6,G7,A9,A11,A13,G20,G27,G28,A29; 2'-OH A10; other pyrimidines 2'-F; 5' 80 kDa PEG (GL2-800GS2)-ssH linker; 3' idT
IC50 (Autotaxin (ENPP2, NPP2) [4]): 12 nM

B4: SEQ 16(66) (mixed)
RNA: UCUGAGGGAAACAGGUUUUGCUCCUCGGA
modifications: dT1; 2'-deoxy G8,G14,G15,C23,C26; 2'-OMe C2,U3,G4,A5,G6,G7,A9,A11,A13,G20,U22,C24,U25,G27,G28,A29; 2'-OH A10 with PS; other pyrimidines 2'-F; 5' 40 kDa PEG (GL2-400GS2)-ssH linker; 3' idT
IC50 (Autotaxin (ENPP2, NPP2) [4]): 0.7 nM

B5: SEQ 16(60) (mixed)
RNA: UCUGAGGGAAACAGGUUUUGCUCCUCGGA
modifications: dT1; 2'-deoxy G8,G14,G15,C23,C26; 2'-OMe G4,A5,G6,G7,A9,A11,A13,U19,G20,G27,G28,A29; 2'-OH A10 with PS; other pyrimidines 2'-F; 5' and 3' idT
IC50 (Autotaxin (ENPP2, NPP2) [4]): 23 nM

B6: SEQ 16(61) (mixed)
RNA: UCUGAGGGAAACAGGUUUUGCUCCUCGGA
modifications: dT1; 2'-deoxy G8,G14,G15,C23,C26; 2'-OMe G4,A5,G6,G7,A9,A11,A13,U17,G20,G27,G28,A29; 2'-OH A10 with PS; other pyrimidines 2'-F; 5' and 3' idT
IC50 (Autotaxin (ENPP2, NPP2) [4]): 23 nM

GGGAAACAGGUUUUGCUCC (ssRNA, 2'-F pyrimidines, 2'-OH purines) [SEQ 22]
IC50 (Autotaxin (ENPP2, NPP2) [3]): 950 nM | binding result (Autotaxin (ENPP2, NPP2) [5]): no binding

UCUGAGGGAAACAGGUUUUGCUCCUCGGA (mixed, as 16(22) with ssH linker instead of 5' idT) [SEQ 16(31)]
IC50 (Autotaxin (ENPP2, NPP2) [3]): 0.8 nM

UCUGAGGGAAACAGGUUUGCUCCUCGGA (ssRNA, 2'-F pyrimidines, 2'-OH purines) [SEQ 36]
binding result (Autotaxin (ENPP2, NPP2) [1]): no binding

B7: SEQ 16(62) (mixed)
RNA: UCUGAGGGAAACAGGUUUUGCUCCUCGGA
modifications: dT1; 2'-deoxy G8,G14,G15,C23,C26; 2'-OMe G4,A5,G6,G7,A9,A11,A13,U18,G20,G27,G28,A29; 2'-OH A10 with PS; other pyrimidines 2'-F; 5' and 3' idT
IC50 (Autotaxin (ENPP2, NPP2) [4]): 23 nM

B8: SEQ 16(56) (mixed)
RNA: UCUGAGGGAAACAGGUUUUGCUCCUCGGA
modifications: dT1; 2'-deoxy G8,G14,G15,C23,C26; 2'-OMe G4,A5,G6,G7,A9,A11,A13,G20,C24,U25,G27,G28,A29; 2'-OH A10 with PS; other pyrimidines 2'-F; 5' and 3' idT
IC50 (Autotaxin (ENPP2, NPP2) [4]): 0.2 nM

GGAAACAGGUUUUGCUC (ssRNA, 2'-F pyrimidines, 2'-OH purines) [SEQ 23]
binding result (Autotaxin (ENPP2, NPP2) [5]): no binding

B9: SEQ 16(54) (mixed)
RNA: UCUGAGGGAAACAGGUUUUGCUCCUCGGA
modifications: dT1,dC2,dT3; 2'-deoxy G8,G14,G15,C23,C24,C26; 2'-OMe G4,A5,G6,G7,A9,A11,A13,G20,G27,G28,A29; 2'-OH A10 with PS; other pyrimidines 2'-F; 5' 80 kDa PEG (GL2-800GS2)-ssH linker; 3' idT
IC50 (Autotaxin (ENPP2, NPP2) [4]): 2.3 nM

B10: SEQ 16(59) (mixed)
RNA: UCUGAGGGAAACAGGUUUUGCUCCUCGGA
modifications: dT1; 2'-deoxy G8,G14,G15,C23,C26; 2'-OMe G4,A5,G6,G7,A9,A11,A13,U16,G20,G27,G28,A29; 2'-OH A10 with PS; other pyrimidines 2'-F; 5' and 3' idT
IC50 (Autotaxin (ENPP2, NPP2) [4]): 16 nM

UCUGAGGGAAACAGGUUCUGCUCCUCGGA (ssRNA, 2'-F pyrimidines, 2'-OH purines) [SEQ 46]
IC50 (Autotaxin (ENPP2, NPP2) [6]): 50 nM

UCUGAGGGAACAGGUUUUGCUCCUCGGA (ssRNA, 2'-F pyrimidines, 2'-OH purines) [SEQ 37]
binding result (Autotaxin (ENPP2, NPP2) [1]): no binding | IC50 (Autotaxin (ENPP2, NPP2) [3]): 720 nM

UCUGAGGGAAACAGGUUUUGCUCCUCGGA (mixed, as 16(21) with 5' 40 kDa PEG (GL2-400GS2)-ssH linker instead of 5' idT) [SEQ 16(24)]
IC50 (Autotaxin (ENPP2, NPP2) [3]): 7.4 nM
